# Earlier results as cited in article PMC4070987.
# Target: alkaline protease inhibitor (Pseudomonas aeruginosa) (UniProt Q03026)
# Chain of UniProt Q03026 (Q03026 27-131): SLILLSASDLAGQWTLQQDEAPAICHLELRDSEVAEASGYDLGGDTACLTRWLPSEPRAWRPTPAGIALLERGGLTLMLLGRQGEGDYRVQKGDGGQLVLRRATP
substance,measurement,value
alkaline protease (AP) (from UniProt Q03023),Kd,4 pM
